# Article PMC8931434
# B1: CerS2-HA [not stated] / FATP2-Flag [human] (parent)
# chain 1: MLQTLYDYFWWERLWLPVNLTWADLEDRDGRVYAKASDLYITLPLALLFLIVRYFFELYVATPLAALLNIKEKTRLRAPPNATLEHFYLTSGKQPKQVEVELLSRQSGLSGRQVERWFRRRRNQDRPSLLKKFREASWRFTFYLIAFIAGMAVIVDKPWFYDMKKVWEGYPIQSTIPSQYWYYMIELSFYWSLLFSIASDVKRKDFKEQIIHHVATIILISFSWFANYIRAGTLIMALHDSSDYLLESAKMFNYAGWKNTCNNIFIVFAIVFIITRLVILPFWILHCTLVYPLELYPAFFGYYFFNSMMGVLQLLHIFWAYLILRMAHKFITGKLVEDERSDREETESSEGEEAAAGGGAKSRPLANGHPILNNNHRKND
# chain 2: not shown
# Variants of: B1
# Test: co-immunoprecipitation (anti-HA IP, anti-Flag western blot, quantified)
# Conditions: with FATP2-Flag [human]; CerS2-/- Hek293T cells, 48 h after transfection; three independent experiments; read off a plot
row,Variant,response
1,chain 1 H212A H213A,1.4
2,chain 1 S341A T346A S348A S349A,6.2
